Patent US20200157212A1 (Pfizer, published 2020)

Target: T1, Human ROBO2 KSR mutant overexpressed on HEK293 cells (human, UniProt Q9HCK4 22-1378)
T1 construct: R100K and K102R already in the entry
T1 sequence: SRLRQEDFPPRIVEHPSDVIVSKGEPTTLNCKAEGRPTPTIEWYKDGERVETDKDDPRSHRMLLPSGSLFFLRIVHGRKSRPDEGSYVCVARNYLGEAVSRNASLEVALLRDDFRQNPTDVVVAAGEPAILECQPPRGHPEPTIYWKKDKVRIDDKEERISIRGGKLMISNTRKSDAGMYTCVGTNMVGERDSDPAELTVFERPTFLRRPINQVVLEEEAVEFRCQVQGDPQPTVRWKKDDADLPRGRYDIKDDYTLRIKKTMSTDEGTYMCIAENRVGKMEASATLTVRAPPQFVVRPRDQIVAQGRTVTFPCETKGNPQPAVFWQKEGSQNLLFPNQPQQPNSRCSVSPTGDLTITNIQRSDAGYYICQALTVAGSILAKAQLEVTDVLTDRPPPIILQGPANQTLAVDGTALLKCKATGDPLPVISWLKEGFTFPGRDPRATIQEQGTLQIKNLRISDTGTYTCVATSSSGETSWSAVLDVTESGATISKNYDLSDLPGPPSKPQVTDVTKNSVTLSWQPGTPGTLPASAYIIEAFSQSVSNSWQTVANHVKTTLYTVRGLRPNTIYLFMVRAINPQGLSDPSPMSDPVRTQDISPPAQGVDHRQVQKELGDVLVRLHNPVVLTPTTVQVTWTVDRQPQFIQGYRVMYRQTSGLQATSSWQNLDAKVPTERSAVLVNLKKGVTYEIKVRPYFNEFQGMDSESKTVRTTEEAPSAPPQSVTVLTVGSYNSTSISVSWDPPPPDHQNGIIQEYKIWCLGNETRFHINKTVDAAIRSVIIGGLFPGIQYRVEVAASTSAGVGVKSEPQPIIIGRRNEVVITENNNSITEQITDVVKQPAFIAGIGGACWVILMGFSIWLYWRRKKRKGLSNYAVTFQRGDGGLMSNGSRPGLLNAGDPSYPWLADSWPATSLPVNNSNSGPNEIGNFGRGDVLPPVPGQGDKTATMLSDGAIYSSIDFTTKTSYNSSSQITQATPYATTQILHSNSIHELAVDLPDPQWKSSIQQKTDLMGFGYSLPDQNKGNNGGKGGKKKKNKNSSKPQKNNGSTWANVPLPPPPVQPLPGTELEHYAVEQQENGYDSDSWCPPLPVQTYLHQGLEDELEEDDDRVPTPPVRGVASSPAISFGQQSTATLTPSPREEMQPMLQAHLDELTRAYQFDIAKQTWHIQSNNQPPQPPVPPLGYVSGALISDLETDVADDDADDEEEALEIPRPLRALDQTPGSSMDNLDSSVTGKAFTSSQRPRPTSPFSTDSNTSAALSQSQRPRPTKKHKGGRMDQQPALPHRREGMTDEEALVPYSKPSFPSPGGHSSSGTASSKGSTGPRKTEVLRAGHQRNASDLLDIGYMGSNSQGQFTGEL
Assay: flow cytometry on HEK293 cells overexpressing the ROBO2-KSR mutant
Protocol: The binding profile of Abcs35-J compared to Abcs35 was determined for human ROBO2, orthologs from cynomolgus monkey and rat, human ROBO1 and specificity for the RSK epitope from ROBO2 but not KSR from ROBO1. Binding was assessed by flow cytometry as described in Examples 2 (homolog specificity), Example 3 (ortholog reactivity) and Example 5 (RSK vs KSR epitope specificity). […] Binding of the antibodies was detected using a secondary fluorochrome conjugated anti-human IgG F(ab′)₂ antibody and samples analyzed on a Fortessa cytometer (BD Biosciences). […] FIGS. 16A-16F depicts binding profiles of Abcs35 (black circles) or Abcs35-J (grey squares) to human ROBO2 (FIG. 16A), cynomolgus monkey ROBO2 (FIG. 16B), rat ROBO2 (FIG. 16C), human ROBO1 (FIG. 16D), ROBO1 containing the ROBO2 RSK epitope (FIG. 16E) or ROBO2 containing the ROBO1 KSR epitope (FIG. 16 F).

B1: Abcs35-J (antibody, human IgG1, kappa)
heavy: EVQLVQSGAEVKKPGASVKVSCKASGYTFTGYYMHWVRQAPGQGLEWMGWINPKNGDTEFPQKFQGRVTMTRDTSITTAYMELSRLRSDDTAVYYCARESGDDAFDIWGQGTMVTVSSASTKGPSVFPLAPSSKSTSGGTAALGCLVKDYFPEPVTVSWNSGALTSGVHTFPAVLQSSGLYSLSSVVTVPSSSLGTQTYICNVNHKPSNTKVDKKVEPKSCDKTHTCPPCPAPEAAGAPSVFLFPPKPKDTLMISRTPEVTCVVVDVSHEDPEVKFNWYVDGVEVHNAKTKPREEQYNSTYRVVSVLTVLHQDWLNGKEYKCKVSNKALPAPIEKTISKAKGQPREPQVYTLPPSREEMTKNQVSLTCLVKGFYPSDIAVEWESNGQPENNYKTTPPVLDSDGSFFLYSKLTVDKSRWQQGNVFSCSVMHEALHNHYTQKSLSLSPGK
light: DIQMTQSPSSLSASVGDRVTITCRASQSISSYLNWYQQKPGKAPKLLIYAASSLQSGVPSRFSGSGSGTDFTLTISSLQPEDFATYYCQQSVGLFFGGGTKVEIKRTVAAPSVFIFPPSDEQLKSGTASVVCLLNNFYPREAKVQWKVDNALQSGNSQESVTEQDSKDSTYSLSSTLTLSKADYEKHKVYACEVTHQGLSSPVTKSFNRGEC
notes: germlined variant of Abcs35; also called ABCS-J
B1: no binding (tested: last point just below 10^1 nM).
